Data reported in a protein production outcome set (Wang et al. 2014).

Assay: label from the status in PepcDB records
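Further: failed if final PepcDB status was selected cloned or expressed and not failed if soluble or beyond.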

## MDSLRFNLQQSPFQLKPRILRPRITNISNRIDETDPRPSSSAGRIQRLVLNNEGRTKLNADPDREFYSYPRFVNHVDDSFISSLTELYRNRLRPGSTVLDLMSSWVSHLPEEVKYEKVVGHGLNAQELARNPRLDYFFVKDLNEDQKFEFEDKYFDAVLCSVGVQYLQQPEKVFAEVYRVLKPGGVLIVSFSNRMFYEKAIRVWRDGTEYSRIQLVVQYFQSIEGFTQPEIIRQQPGAQISVLTRLMGFIGLASTPDPFNAVIAYKNFKPIYE
  protein production: failed

## MWSILALGAVERCIHHIIDLDAITRIQTNQLQGKLLRVVTDSPQLSVDVFFDENRVRLEPTVTGQSQTPSIFEQRPFDPQYKMTDATATLHVKNIVELVKLLFNDPDQIGNIPVEGDYHLLQDIQKIMQQSEPDLAAHLSPWIGPALAHELGKIRLAPQQLKRSMQSHLFFVEDALKEDSGLFAPRWQMDDLQHATRQLNQELDRVEARLQQLNLQLQSDN
  protein production: failed

## LERAKLVSIDRVIDDLSRNIDIEEVSQALAGQVIIDIRHPDAQEDQPLQVPGVEIQTLPFYALNSRFKALDDTRQYLLYCDKGVMSRLHAHHLLSEGHANVRVY
  protein production: failed

## MEFLFILLPVFGIFAIGFIGQKTLKFDIPNLSKLTLYLMSPFLAFNTFYTNPLTMDYFYLAIYIFVLCLSLILLVSVISFLLGYNVQDRCALILASAFMNNGNYGTPVVLLVFGAAGLDIAVVLMVLQQLAMSTIGIYFAAKGSKDANGMKTVMTRVVRMPIAYGALLGLMLQLLHIPLPSALMTCVKLVGDAAIPTIMIVLGMQLAVISFRRIELDKVGIALVLKLLIAPFIAFGLTLILPVDEMTKQIMILLAAMPTAANTTLMAVQFDTKPDLVSSTTFISTVLSIITLPIVLYFLHPVF
  protein production: failed

## MLEGAKFNVLAVGNHHNNDNNYYAFTQEFYQKLNEGSNMSMESMQTSNAGGSVSMSVDNSSVGSSDALIGHPGLKPVRHYSLSVGQSVFRPGRVTHALNDDALAQALMDTRYPTEGLTNYDEWTIDLRKLNMGPAFAQGAFGKLYKGTYNGEDVAIKILERPENSPEKAQFMEQQFQQEVSMLANLKHPNIVRFIGACRKPMVWCIVTEYAKGGSVRQFLTRRQNRAVPLKLAVKQALDVARGMAYVHGRNFIHRDLKSDNLLISADKSIKIADFGVARIEVQTEGMTPETGTYRWMAPEMIQHRAYNQKVDVYSFGIVLWELITGLLPFQNMTAVQAAFAVVNRGVRPTVPNDCLPVLSDIMTRCWDANPEVRPCFVEVVKLLEAAETEIMTTARKARFRCCLSQPMTID
  protein production: failed

## MTNVLWLQGGACSGNTMSFLNAEEPTVCDLIADFGIKVLWHPSLGLELGDNVQTLLWDCILGKIPLDILVFEGTVVNAPNGTGEWNRFADRPMKDWLNDLAQAASFVVAVGDCATWGGIPAMEPNPSESQGLQFLKRKEGGFLGKDFRAKSGLPVINIPGCPSHPDWITQILVAIATGRIGDIALDELNRPQTFFNTFTQTGCTRNVHFAYKATTAEFGQRKGCLFYDLGCRGPMTHSSCNRILWNRVSSKTRAGMPCLGCTEPEFPFFDLKPGTVFKTQTIMGVPKELPPGVSNKNYAVLTMVAKDTAPKWAEEDFFTV
  protein production: failed

## MADFQGETEMTAEVFDPRALRDAFGAFATGVTVVTASDAAGKPIGFTANSFTSVSLDPPLLLVCLAKSSRNYESMTSAGRFAINVLSETQKDVSNTFARPVEDRFAAVDWRLGRDGCPIFSDVAAWFECSMQDIIEAGDHVIIIGRVTAFENSGLNGLGYARGGYFTPRLAGKAVSAAVEGEIRLGAVLEQQGAVFLAGNETLSLPNCTVEGGDPARTLAAYLEQLTGLNVTIGFLYSVYEDKSDGRQNIVYHALASDGAPRQGRFLRPAELAAAKFSSSATADIINRFVLESSIGNFGIYFGDETGGTVHPIANKDAHS
  protein production: not failed

## MGSSHHHHHHSSGLVPRGSHMGKEYFLKVALREAKRAFEKGEVPVGAIIVKEGEIISKAHNSVEELKDPTAHAEMLAIKEACRRLNTKYLEGCELYVTLEPCIMCSYALVLSRIEKVIFSALDKKHGGVVSVFNILDEPTLNHRVKWEYYPLEEASELLSEFFKKLRNNII
  protein production: not failed

## PARIDTLEIKLLFAGDIMTHGPQIESAKCEGGRVYDFSSSFDTLASRIGAADLAIGNLETTFAGAPYSGYPTFSSPDAMGEALKNAGFDVLTTANNHTADKGKKGIIRTLDMLDSLGIAHTGSYRDIFDRDKMTPLILEVKGVRIAILAYTYGTNGMPVPAPTWVDPIDTVMIKKDLLRADSLGADYRIVQIHWGIEYRKEPDSEQLELARKLHRYGADAIIGSHPHVV
  protein production: failed

## MTERLLVGVIVGSHGVRGLVRVKSFTQDEMALCDYGPLSDETGTRRFAVEVRNQAKGVVICQIPGVSDRTAADALKGTRLFLDRAALPADALEEDEYYHADLIGLPVDLVDGGRLGVVHSVHDFGAGDMLEVTLAQGRRSVLLPFTKAVVPLVDVKAGRLVADPPLGLLDDTRPPAGVEGEVEEDPGVGIDEDGDGKGGASLEHHHHHH
  protein production: not failed

## AIAAVKAQVLYDFTAEPGNNELTVHEGETLTITNQNVGGGWVEAQNSRGNVGLVPVDYVEVNSASAQAPATQYIDARNQGNNNSTANTQGVNGNEAWTATTWSNSYPADNWNYTEQEPAGNNGSVYSFDEEWDDDSDDGKSTGGYGGSQAEDGGTMQRSGAHSTMKLSLNKFPGFSKTPNPEVYLLTKHITKGNDRLSVYPGEVGPVWLYPQTQLDCVVADPKKGSKMYGLKSYIEYQITPNTTNRPVNHRYKHFDWLYERLVEKFACALPVPGLPDKQVTGRFEEEFIKMRMERLQGWMSRMCRHPVISNSEVFQLFLNYRDEKEWKLGKRKAEKDETVGVKIFSTIDPELPELDPAQVEQKYEVYNQFTRSMDNSVKELLAVGNLHWKRCTGPLQKEYRQIGKAFQNMSSVFNTSGYPRESTLTEALTATGKTYEEIAEVIAAQPRKDLHFLLETNNEYKGLLGCFPDTIGVHKAAIDKVKEADHLVMTNKISQQDKHTMEKNLSTMSYALQAEMNHFHSNRIYDYNRLMQFYLEEQVKFYETIAEKLKKALGQYTTI
  protein production: failed

## PGKEAQPAENVEFIYENGTWKLSQSWACTLIKNTVAPEQIPAMCADPAAPAPEGQPAPEQAPAPEAPAPEQAPAPEAPAPQ
  protein production: failed

## VMQMDRQPLVDPFGDYFQEFLSNAQNGQFFTPFGVCELMNQLITAPKVSDQPKQGDRRVLDPACGSGRLLLSAAQKDRALTFVGIDISYTCCLMTIINLCLNSLNGEVLHMNALTDQYWHRWL
  protein production: failed

## MIIRIKHYGEVKIEDSKNLLLNLIENRIGIDNICNGKGTCGKCKVRFRQGVPEATSADLRYLSVEELEEGVRLACQVKPQKGMEIDVTLSNSFDRKLEHHHHHH
  protein production: not failed

## MIQITVVQIDNYGPWTVTPNPRRESDLQALQSRLYCDMNLQFGAHKGLAFYTRFDNIIAITNGIDLETHKRIQNSVKNRYPFTVSMAVASAETAYEAQKLATKTIQEYGSAQDDVRKEVLDVANEFVSNGYVQLAHVDINDITGKLTDLETAYDTYLSVQKTKLKLMEELKKYDSLGFFIGGDNFMCPCNGMNEKDFLCMFEDIKDSCGIELKAGIGIGKTAEDASNLADIGLEVIREGKTDSQVYTLKQEIDEQKNVPYNYMCPI
  protein production: failed

## MNGTELRETLEDLIKEVVQASREALDTQGELNERNEAALRTLEAQWRQRLIEELHEQGSLRVVLCRTDLLVPGSGATGTTTTNRTDPLRYVYETLRQRDPRERRRSLPPERSSQSSELEDTGTDSGEALSSGDDDDEISQVAGQPEPETANYVLSQYERVLAPSTNKQRIWRVFLRDAMVHINGQDLLLNQLQCQFDW
  protein production: not failed

## AGSMEDIPVEEAVLTGVATDNSEAKITVLGIPDSPGSASAVFRALADAEINIDTVLQNISSLEDNRTDITFTCPRADGPHAMELLRNLQAKNDWQNVLYDDQIGKVSLVGAGMKSHPGVTAEFCEALRDAGVNIELISTSEIRISVLIRESDVDVAARAIHEKFELGGETEAIVYAGTGR
  protein production: failed

## GDLAGSLDLGTGRIALYSIDVSGHGVASALMTARLAGLLSGLSTDGGVARSDGACRQCAGHDSWPPEILAARLNRMMIADLGVEQYFTMAYAEIDLRSGALALVQAGHPHPVVLRAGGRVELLGQGGLPVGLLPDATFERSETRLLPGDRLFLLSDGVTECPDLSGHELGEAGLVRLLAEHAGLGSEELMEALVWALHERMGGGDFRDDVSGVLFDY
  protein production: failed
